Measurements from the DeepSol protein solubility set.

Assay: soluble on expression in E. coli; label from the status in PepcDB or PDB records

Sequence | soluble on expression in E. coli
MIVRGGGDLATGVIQKLWHVGFKILVLETECPLAIRRTVSVCDAIFQKEQRVEDLVAVRITSLKDCAKCWQQNKLPVFVDQTASAIQQLKPLIVIDAILAKKNLGTHRGMAPITIALGPGFSAPQDVDVVIETMRGHRLGRLYFEGTALPNTGIPGEIGGKSAERVVHAPASGQVTHLKNIGDLVLKGEALFLIDQVPVYSPLTGTLRGLISEKVTCYQGLKCADVDPRPVEKVDCLTISDKARALGGAVLEAIFMIGRRKNVLLEHHHHHH | soluble
MFQKILIANRGEIAVRIMKTCQKLGIRTVAIYSEADENALHVKMANEAYLVGGPRVQESYLNLEKIIEIAKKTNAEAIHPGYGLLSENPSFPVRCKEEGIVFIGPSEEIITKMGSKIESRIAMQAADVPVVPGITTNIETAEEAIEIAKQIGYPLMLKASAGGGGIGMQLMETEQTLTKAFESNKTRAQNFFGNGEMYLERYIADAHHIEIQLLADTHGNTVYLWERECSVQRRNQKVIEEAPSPFLDEGTRKAMGEIAVQAAKALGYTNAGTVEFLVDEQKNFYFLEMNTRLQVEHPVTEEITGLDLVEQQLLIAYGEKLSFTQDDIKRSGHAIEARIYAEDPKTFFPSPGKITDLTLPTNVRIDHFLENQVTITPFYDPMIAKVIAHGETREEAISKLHDALEELKVEGIKTNTPMLLQVLEDDVFKSGIYTTGFVTKQLVKK | not soluble
MGHHHHHHSHMVGTQPRFLVKIHQKFYWAIRDDLIIHGGYKRSGLTSSFALVAMGPLGRPWAASFGFFFLAVVSLATPTPGEDDDIPVKIHRLTFVKGLVPDVTGGSSYYVCVYPSRKLFCTPTRWKDLSRFLNSETLNQVCSARTIYSVVPVEMLRIISLPLPPEIKSIVGGSIRSQYVSFPTFISLHPAKLPIWKSFANLKVSMKFRSSQWEVAFSVVSKTDYAITYWAEIPGFLIHESATINLINQPLLALYADLHVDMVMRLTDKFIYCQTYTLQQKNLTDPRTGKRPTSSVLIPSPHVKNCQIRRRNETHFVDTCSSAWDNYTSEAHNISRNSSSRGSNATQLVNITANPCTLPTLWDNWPCYTNYRSSPVPEIVIHENILLEGRAIYIIYHQIGLFDQPRLCVATFWMSKEETLLMQLDYPCEVSVEKKGKKFFIKSVVSMYHAISMVTFIWEYGIEIYDFLE | not soluble
MTTKNTLQPTEAAYIAGFLDGDGSIYAKLIPRPDYKDIKYQVSLAISFIQRKDKFPYLQDIYDQLGKRGNLRKDRGDGIADYTIIGSTHLSIILPDLVPYLRIKKKQANRILHIINLYPQAQKNPSKFLDLVKIVDDVQNLNKRADELKSTNYDRLLEEFLKAGKIESSPTGSGSGSKHPTLTLPTTTSQENLPNGSGSGSGTMTTKNTLQPTEAAYIAGFLDGDGSIYAKLIPRPDYKDIKYQVSLAISFIQRKDKFPYLQDIYDQLGKRGNLRKDRGDGIADYTIIGSTHLSIILPDLVPYLRIKKKQANRILHIINLYPQAQKNPSKFLDLVKIVDDVQNLNKRADELKSTNYDRLLEEFLKAGKIESSP | soluble
MGSDKIHHHHHHMDPRLLEYYNRELSYLRETGAEFAARHPKVAARLGMQGTDIADPYVERMVEAFSFLTARTQLKIDAEFPRFTQRLLEVVSPNYVTPTPSMSVAQLHPDTEEGDLAKGFTVPRDTAFFSAIPEGESTACQFRSSQDVTLWPLAIEEARLTAAPPDMPALHRYLPANIHVAGALRITLRTFGELTFSQLAGLDRLPFYLCGEERTASHLLELLHTSAIAPLAGIPGHFDGALDVNLQQPVMYEGLEPDQGLLPLAWNVFHGHNLLHEYFACPERFYFFTPTGLSAGLQKIDGGVAEIVILLNRLPPDWLIHQTNAAQFSLFCTPVINLFPRVTARIDVTHSTTEQHLVVDRTHPLDYEVFSVQEVEGLETDTTRKMAFRPLYHTRNNDEGNHGRYFSLRREPRRLSENARRYGTRTPYTGSEVFLSLVDQYEAPYPENLRHITITAMVTNRDLPCLIARNGRDDLTVDAAIPVAGVGLIRPPRSPQPPMAEREMAWRLIRQLSFNYLPLADLDHRTGGQALRDLLNLFIPAHDSPQSRQVRSLIGCKTTPVTRRLPGSGLLVYGRGVSCELTVDEEGFSGISPYLFGLVLEHYIARHVSINTFSQMTLHSMQRGKIMTWPVRAGQRGSV | not soluble
SAHSAAAVPLGALEQGCPIRVEHDRRRRQFTVRLNGCHDRAVLLYEYVGKRIVDLQHTEVPDAYSGRGIAKHLAKAALDFVVEEDLKAHLTCWYIQKYVKENPLPQYLERLQP | soluble
MSRVERLPNGLVVALEERDFPGVAFQLLVPAGAVNDPEGMEGAAALLEGWLWKGAGDLDARALAQALDALGVRRSSGAGLEYTAFAAAFLPEVLDEVFRLYALLLTRPRLPEEGLEAVGHVALQALLSLEDQPARKLLSELRRKVFRSPHGREPLGREEGLKGARAEALKADYRRRYTPKGAILAVAGGVSWERLRAALEPFLAWEGEEALYPAPELSEPHRFVLRRPTAQVQIGLAYPDVGPEDPGFYAARLALEVLSGGMSSRLFTEVREKRGLVYAVSAFPAGVKGQGLLMAYAGTTKERAGETLEVLRAEVERLAEGVTEEELFRAKVGLKTALVMADESIRSRAASMARDLYMLGRVRSLSEIEAAIEGTSLEAVNAFLRAHPYRDPWVGLLGEVEDV | soluble
SNAMNYFELFGLPIQFELDGSLLSSQFRALQKRFHPDNFATASERDRLMAVQQAAQINDAYQTLKDPLRRAEYLLSLQGIEMNAEQQTLQDPMFLMEQMELREELESVTACADPEAALVAFDTKVTAMQRHYLAQLQGQLAQSEWLAAADQIRKLKFIAKLKNEVERVEDQLLG | soluble
MGHHHHHHSHMEEMKKTAIRLPKGKQKPIKTEWNSRCVLFTYFQGDISSVVDEHFSRALSNIKSPQELTPSSQSEGVMLKNDDSMSPNQWRYSSPWTKPQPEVPVTNRAANCNLHVPGPMAVNQFSPSLARRASVRPGELWHFSSLAGTSSLEPGYSHPFPARHLVPEPQPDGKREPLLSLLQQDRCLARPQESAARENGNPGQIAGSTGLLFNLPPGSVHYKKLYVSRGSASTSLPNETLSELETPGKYSLTPPNHWGHPHRYLQHL | not soluble
MAHHHHHHMIFRFYSKLYKHQCAYKNILYNKYHIEKKLEYFYDSIKKNNYSTLYGIKKNDLLNIKKNSGEFLLLSDIFMIKQNNLFLLNNVRRNFYYNTNIIKGIYNDSLFYYDKKYFSGRSGGLKRKKKRKEERIVNTGSAKRLEFFYPKKKRRQRIGLIQNSRKNIVYDNIFKRFLVYHYKQGIQVFRSFSCKKKRNFEAARNKAIILSNQYNKRFNKHNMNDQQRKDTKNIPLNVMDSNLIAKYNNELIKQIKIIPDKNKSGYRGVFYEPSYHAYICIYNEAGVRKFQIFKIQNNDYLEAYHLALMCRRYKLFKNYQFVFQRNRIRSGRIPLK | not soluble
GSLRVKFSRSADAPAYQQGQNQLYNELNLGRREEYDVLDKRRGRD | soluble
AIAALKDYALEKEKVKKFLQEFYQDDELGKKQFKYGNQLVRLAHREQVALYVDLDDVAEDDPELVDSICENARRYAKLFADAVQELLPQYKEREVVNKDVLDVYIEHRLMMEQRSRDPGMVRSPQNQYPAELMRRFELYFQGPSSSKPRVIREVRADSVGKLVTVRGIVTRVSEVKPKMVVATYTCDQCGAETYQPIQSPTFMPLIMCPSQECQTNRSGGRLYLQTRGSRFIKFQEMKMQEHSDQVPVGNIPRSITVLVEGENTRIAQPGDHVSVTGIFLPILRTGFRQVVQGLLSETYLEAHRIVKMNKSEDDESGAGELTREELRQIADVIFATVRELVSGGRSVRFSEAEQRCVSRGFTPAQFQAALDEYEELNVWQVNASRTRITFV | soluble
MSTTFPLHTESFMLLDSGCLTNSDYFLPFALTDVLTTFSGMQHQPIIHFWQLDQAMILGMKDTRVPHLKEGIASLQENDYSVVVRNAGGLGVIADSGILNVSLILPNNSEHKLSIDAAYELMWAWLRQSFPEKEIDAFEITTSYCPGTYDLSIGGQKFAGIAQRRVKDGISVMIYISVNGNQLARGEVVRDFYLAGLQEQFGENGYPPVDPAVMANLETLIETPLTIDAVKTRLIEALPQQFEKSIDPNLTEPIITSEWFQTNLTVQLEKMAQRNALIKGEIL | not soluble
MGSDKIHHHHHHMLSALWVSKTGLSAQDMNLTTISNNLANVSTTGFKRDRAEFQDLLYQIRRQPGGQSTQDSELPSGLQLGTGVRVVGTQKIFTPGSLQTTEQPLDMAVNGRGFFQVLLPDGTVSYTRDGSFHLNSDGQIVTSNGFALEPAIVVPNETQTFTVGQDGTVSVTTTGNAQPQVIGNIQTADFINPAGLQAIGNNLFLETGSSGAPQVGTPGLNGLGTVAQNTLENSNVNVVEELVNMITTQRAYEMNSKVISTADQMLSFVTQNL | not soluble
MADPDSYRSSITSRPAFNRTVTSSTQNYGTPASGNRVLKIVTETHTSSVASGLSPYGQGAASTIRDDREREKKEITELNDRLASYIGKVRFLAAQNRKLEADLNVLQSRFGKSTGSVKIMYEMEITTATNVVKETGKDHEEAEKEIGKIKDQLDELRKKFEEAQKGRAEDRLKIDELLVTLSNLEAEINLLKRRIALLEEEVARLKKENFRLTSELQRVRSELDQETLLRIDNQNKVTTILEEIDFMKRGFETELKDLQAQAARDTTSENREYFKNELMNSIRDIRAEYDRFMAGNRNDLESWSQIRVQEINTQTNRQNAEINHKRDEVKRLHSQVSELKSKHAELAARNGLLEKQLEDLNYQLEDDQRSYEAALNDKDAQVRKLREECQALLVELQMLLDTKQTLDGELKVYRRMLEGNSEENGLRQLVEKVVRTSAINEEVDTETMRVVKGEHSSRTSYQRSAKGNVSIKEVSPEGKFVILENTHRDKEEPLGDWKLKRKIDGKREIVFTFPSDYILHPVQTVKIFARGNGVANPPEVLVFEGDDTFGAGANVQTILYNNSGEERATHMQRQSQQTTTS | not soluble
GPGSMLRKVTSPYKVSIRRTAASVTAADSKKAILRLIRFDPETNKQRVESYEYDKHHDYMVLDLITAVKAHQDPTLAFRASCCEGVCGSCAMNINGVNSLACITFSQQVTTVGPLPNFPVIKDFVVDLRHFFRQYAYIRPFVRNVNLDRSRLDNIVERYKTITKVIHGVPSDDEAQLAQLESKSGAQTDVMALLQLLDAVCESGNVTHLIRTLEALQERGMQLDQGKVKALIEETLQNYKKRKLGA | not soluble
GSGTMEKGTFTLKDIYKQIEAMNKMGPVRKIFEMLPFGLGLKVDNDVMEMTQEKMKKFRVIMDSMTEEELLNPKIIDSSRIRRIAIGSGTSPQEVKELLNYYKTMKNLMKKMKKNKLPI | soluble
MAHHHHHHMLAPTVTREACQPIINAFRCAAEKGQTQTDVDAESWGREVTRINAEAQKAWSEQRKPFIPAMYLRRRDPAAEEALRLLRVTSKAFELNLRFREIEKLDEMHAKLWALLSADKTRLTITIIEYMEILKKFKAWQEERFEGTPKASPQREASVQSSQECLDDTTPLGSVVYLASVMQPRPSLQLYLSCPRSPAGGVEVVHIYQRFAKQVSLVKCEAELIMWDTNNDGCLTEDEMESYVRDLVPRIEALRDITEDILPFYCCTVSRRIFWVLDPGSRGAIRIDMLLQNPVMDEWVSLQLMREDQPRNWFSAAITSHLYDKFLLLDTRNRGTLNADDMKRYKKGLPTVMDDGLPPGVGPLSSLFIDRFFETNVMMANSELDFRKFVDFVVAVEFLPSCQRPLFFWNILDIEGCGYLKPVHVNYFFRETHTKLVAAGLEVPSRETVVQEAFDLISTAEPLCISREEFINAPQAGLFVALLVDCLSFWTYENREQR | not soluble
MGHHHHHHSHALPAGEWGTVQLRGSWRVGQTAGGSRNFASYPTNPCFPFSVPEGPGPRCVRITLHQHCRPSDTEFHPIGFHIFQVPEGGRSQDAPPLLLQEPLLSCVPHRYAQEVSRLCLLPAGTYKVVPSTYLPDTEGAFTVTIATRIDRPSIHSQEMLGQFLQEVSVMAVMKT | soluble
